According to patent US20230382992A1 (Bristol-Myers Squibb, published 2023):

Target: CD64 (UniProt P12314 16-288, limits assumed)
Test: assay not described

Chain of CD64 (P12314 16-288 limits assumed): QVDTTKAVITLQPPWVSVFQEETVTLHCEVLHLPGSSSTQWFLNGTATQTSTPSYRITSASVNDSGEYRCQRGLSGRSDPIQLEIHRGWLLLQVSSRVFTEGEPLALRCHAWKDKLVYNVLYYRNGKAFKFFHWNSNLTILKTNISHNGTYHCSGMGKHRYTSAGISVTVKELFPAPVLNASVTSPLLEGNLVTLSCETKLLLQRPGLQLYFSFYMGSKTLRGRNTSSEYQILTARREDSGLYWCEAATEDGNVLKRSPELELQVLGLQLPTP

binding result: no binding
B1: TIM3.18.IgG1.3 (antibody)
heavy: QLQLQESGPGLVKPSETLSLTCTVSGGSISSRSYYWGWIRQPPGKGLEWIGSIYYSGFTYYQPSLKSRVTISVDTSKNQFSLKLSSVTAADTAVYYCATGGPYGDYAHWFEPWGQGTLVTVSSASTKGPSVFPLAPSSKSTSGGTAALGCLVKDYFPEPVTVSWNSGALTSGVHTFPAVLQSSGLYSLSSVVTVPSSSLGTQTYICNVNHKPSNTKVDKRVEPKSCDKTHTCPPCPAPEAEGAPSVFLFPPKPKDTLMISRTPEVTCVVVDVSHEDPEVKFNWYVDGVEVHNAKTKPREEQYNSTYRVVSVLTVLHQDWLNGKEYKCKVSNKALPAPIEKTISKAKGQPREPQVYTLPPSREEMTKNQVSLTCLVKGFYPSDIAVEWESNGQPENNYKTTPPVLDSDGSFFLYSKLTVDKSRWQQGNVFSCSVMHEALHNHYTQKSLSLSPGK
light: not shown
notes: Effectorless IgG1.3f (L234A, L235E, G237A); It was radioiodinated for the Scatchard assays; also called TIM3.18 (13A3) IgG1.3f (N60Q/D101E)
